Source: article PMC6353796, “Thermostable Branched-Chain Amino Acid Transaminases From the Archaea Geoglobus acetivorans and Archaeoglobus fulgidus: Biochemical and Structural Characterization” (Frontiers in Bioengineering and Biotechnology, 2019)
“And” between values parts separate entries of the source, which are not always exact repeats. Equal values may be shown once.

Columns and labels:
[1] = molecular target: GEO1900, branched-chain amino acid transaminase (BCAT) from Geoglobus acetivorans (Geoglobus acetivorans); experiment: crystal structure; GEO1900 holo form and AKG complex, space group P3(2)21, three subunits per asymmetric unit; hexamer built with symmetry mates
[2] = molecular target: GEO1900, branched-chain amino acid transaminase (BCAT) from Geoglobus acetivorans (Geoglobus acetivorans); experiment: SEC; GEO1900 on Superdex 200 in 30 mM Tris-HCl, pH 8.0, 300 mM NaCl; native molecular weight by gel filtration

- stoichiometry N [1]: 6
- stoichiometry N [2]: 2 and 4
Substance: GEO1900, branched-chain amino acid transaminase (BCAT) from Geoglobus acetivorans (enzyme)
